Experiments:
[1] = biological target: GST-OST1/SnRK2.6 (UniProt Q940H6)
[2] = biological target: T1, dephosphorylated recombinant His-OST1/SnRK2.6 (UniProt Q940H6)
T1 sequence: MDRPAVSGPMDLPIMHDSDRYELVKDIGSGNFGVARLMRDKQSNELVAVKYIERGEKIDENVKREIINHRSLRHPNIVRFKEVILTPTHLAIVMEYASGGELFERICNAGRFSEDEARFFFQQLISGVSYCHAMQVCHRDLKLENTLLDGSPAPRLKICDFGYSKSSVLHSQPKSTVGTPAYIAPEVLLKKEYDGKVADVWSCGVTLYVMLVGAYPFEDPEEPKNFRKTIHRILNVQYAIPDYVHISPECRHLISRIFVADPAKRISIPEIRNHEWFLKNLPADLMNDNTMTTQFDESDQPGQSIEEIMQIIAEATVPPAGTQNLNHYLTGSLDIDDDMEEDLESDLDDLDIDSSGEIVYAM

[3] = biological target: GST-OST1/SnRK2.6 (D140A) (UniProt Q940H6)
[4] = biological target: T2, GST-SnRK2.3 (UniProt Q39193)
T2 sequence: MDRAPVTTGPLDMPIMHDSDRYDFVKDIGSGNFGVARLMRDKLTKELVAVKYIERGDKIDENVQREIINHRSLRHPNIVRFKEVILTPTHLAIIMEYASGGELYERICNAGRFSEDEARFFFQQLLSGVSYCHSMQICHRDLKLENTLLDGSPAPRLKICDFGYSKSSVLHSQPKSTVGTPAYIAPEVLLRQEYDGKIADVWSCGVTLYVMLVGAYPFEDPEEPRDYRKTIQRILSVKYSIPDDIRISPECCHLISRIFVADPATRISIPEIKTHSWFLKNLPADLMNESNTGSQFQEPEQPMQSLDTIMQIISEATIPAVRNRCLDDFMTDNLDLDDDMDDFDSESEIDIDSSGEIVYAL

[5] = biological target: T3, GST-SnRK2.4 (UniProt P43291)
T3 sequence: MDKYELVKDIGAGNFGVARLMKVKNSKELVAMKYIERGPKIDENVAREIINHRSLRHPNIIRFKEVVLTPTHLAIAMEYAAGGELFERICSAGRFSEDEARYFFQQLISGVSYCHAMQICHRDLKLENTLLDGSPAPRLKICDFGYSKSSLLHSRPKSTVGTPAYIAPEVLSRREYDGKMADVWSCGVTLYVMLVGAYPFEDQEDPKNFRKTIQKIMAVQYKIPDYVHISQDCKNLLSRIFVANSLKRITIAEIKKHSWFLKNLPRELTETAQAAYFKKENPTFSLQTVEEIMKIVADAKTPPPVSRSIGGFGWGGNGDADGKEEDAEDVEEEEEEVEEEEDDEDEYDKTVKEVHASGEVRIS

[6] = biological target: T4, GST-SnRK2.2 (UniProt Q39192)
T4 sequence: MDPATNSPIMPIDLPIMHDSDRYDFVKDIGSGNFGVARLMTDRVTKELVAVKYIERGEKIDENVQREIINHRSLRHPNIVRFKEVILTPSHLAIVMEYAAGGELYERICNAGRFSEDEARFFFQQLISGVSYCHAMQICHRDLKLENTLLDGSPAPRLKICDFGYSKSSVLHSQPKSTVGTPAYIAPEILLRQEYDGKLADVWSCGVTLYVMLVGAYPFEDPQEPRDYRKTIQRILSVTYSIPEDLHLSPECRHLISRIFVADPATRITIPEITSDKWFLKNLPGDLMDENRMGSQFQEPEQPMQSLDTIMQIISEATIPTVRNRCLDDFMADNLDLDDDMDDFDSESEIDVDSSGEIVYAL

Sequence of CPK23 (chain, as listed by the source): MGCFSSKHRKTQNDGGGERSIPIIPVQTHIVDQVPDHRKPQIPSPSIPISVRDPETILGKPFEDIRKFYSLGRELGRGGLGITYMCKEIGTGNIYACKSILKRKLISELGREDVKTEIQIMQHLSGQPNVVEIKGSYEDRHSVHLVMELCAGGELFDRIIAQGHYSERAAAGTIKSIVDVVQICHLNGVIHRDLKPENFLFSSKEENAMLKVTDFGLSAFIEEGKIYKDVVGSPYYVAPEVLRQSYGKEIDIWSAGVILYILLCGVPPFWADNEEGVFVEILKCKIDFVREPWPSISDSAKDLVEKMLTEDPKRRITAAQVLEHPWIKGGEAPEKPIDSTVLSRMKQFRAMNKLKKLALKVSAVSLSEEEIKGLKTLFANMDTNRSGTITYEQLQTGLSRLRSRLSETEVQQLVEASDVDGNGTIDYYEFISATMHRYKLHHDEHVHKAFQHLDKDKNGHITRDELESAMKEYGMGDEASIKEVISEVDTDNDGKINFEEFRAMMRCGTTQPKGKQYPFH

CPK23
in vitro phosphorylation assay with 32P-ATP after dephosphorylation of OST1 [1]: did not phosphorylate OST1/SnRK2.6 after dephosphorylation

M3Kδ6 kinase domain mutant (K775W)
OST1/SnRK2.6 activity, in-gel kinase assay in vitro [2]: OST1/SnRK2 kinase activation was not induced by an inactive mutant M3K kinase protein, M3Kδ6 (K775W)

CPK6
in vitro phosphorylation assay with 32P-ATP after dephosphorylation of OST1 [1]: did not phosphorylate OST1/SnRK2.6 after dephosphorylation

full-length His-M3Kδ1
OST1/SnRK2.6 activity, in-gel kinase assay in vitro [1]: Full-length M3Kδ1 activates OST1/SnRK2.6 in vitro

GST-M3Kδ6 kinase domain
in vitro phosphorylation assay with 32P-ATP [3]: the M3Kδ1, 66 and 67 kinase domains directly phosphorylated the kinase inactive OST1/SnRK2.6 (D140A) mutant isoform
SnRK2 kinase activity, in-gel kinase assay in vitro [4]: SnRK2.3 was also activated by M3Kδ6 and M3Kδ7
OST1/SnRK2.6 activity, in-gel kinase assay in vitro [2]: three M3Ks from the subgroup B3, named M3Kδ1, 66 and 67, were found to strongly activate OST1/SnRK2.6

GST-M3Kδ1 kinase domain
OST1/SnRK2.6 activity, in-gel kinase assay in vitro [1]: the truncated kinase domain (M3Kδ1_KD) has a higher activity than the full length M3Kδ1 protein (M3Kδ1_Full)
SnRK2 kinase activity, in-gel kinase assay in vitro [5]: M3Kδ1 also activated SnRK2.4 kinase in vitro
in vitro phosphorylation assay with 32P-ATP [3]: the M3Kδ1, 66 and 67 kinase domains directly phosphorylated the kinase inactive OST1/SnRK2.6 (D140A) mutant isoform
phosphorylation sites by LC-MS/MS after in vitro phosphorylation [3]: M3Kδ1 phosphorylated the OST1/SnRK2.6 residues Ser171, Ser175 and Thr176 in the OST1 activation loop
SnRK2 kinase activity, in-gel kinase assay in vitro [6]: M3Kδ1 strongly activated SnRK2.2 and 2.3
SnRK2 kinase activity, in-gel kinase assay in vitro [4]: M3Kδ1 strongly activated SnRK2.2 and 2.3
OST1/SnRK2.6 activity, in-gel kinase assay in vitro [2]: three M3Ks from the subgroup B3, named M3Kδ1, 66 and 67, were found to strongly activate OST1/SnRK2.6

GST-M3Kδ7 kinase domain
in vitro phosphorylation assay with 32P-ATP [3]: the M3Kδ1, 66 and 67 kinase domains directly phosphorylated the kinase inactive OST1/SnRK2.6 (D140A) mutant isoform
SnRK2 kinase activity, in-gel kinase assay in vitro [4]: SnRK2.3 was also activated by M3Kδ6 and M3Kδ7
OST1/SnRK2.6 activity, in-gel kinase assay in vitro [2]: three M3Ks from the subgroup B3, named M3Kδ1, 66 and 67, were found to strongly activate OST1/SnRK2.6

Source: patent US20220154204
